Consider four molecules from patent US20230365705A1 (DYNAMICURE BIOTECHNOLOGY, published 2023).

“And” between values parts separate entries of the source, which are not always exact repeats. Equal entries are not always repeated.

The target in assay [1] is T1, Human CD93 recombinant protein (Sino Biological Inc, Catalog #12589-H08H) (human, UniProt Q9NPY3 22-580).
T1 construct: Biotinylated (EZ-LINK NHS-PEG4 biotin) in the BLI assays; also called hCD93; His-tagged human CD93
T1 sequence (looked up): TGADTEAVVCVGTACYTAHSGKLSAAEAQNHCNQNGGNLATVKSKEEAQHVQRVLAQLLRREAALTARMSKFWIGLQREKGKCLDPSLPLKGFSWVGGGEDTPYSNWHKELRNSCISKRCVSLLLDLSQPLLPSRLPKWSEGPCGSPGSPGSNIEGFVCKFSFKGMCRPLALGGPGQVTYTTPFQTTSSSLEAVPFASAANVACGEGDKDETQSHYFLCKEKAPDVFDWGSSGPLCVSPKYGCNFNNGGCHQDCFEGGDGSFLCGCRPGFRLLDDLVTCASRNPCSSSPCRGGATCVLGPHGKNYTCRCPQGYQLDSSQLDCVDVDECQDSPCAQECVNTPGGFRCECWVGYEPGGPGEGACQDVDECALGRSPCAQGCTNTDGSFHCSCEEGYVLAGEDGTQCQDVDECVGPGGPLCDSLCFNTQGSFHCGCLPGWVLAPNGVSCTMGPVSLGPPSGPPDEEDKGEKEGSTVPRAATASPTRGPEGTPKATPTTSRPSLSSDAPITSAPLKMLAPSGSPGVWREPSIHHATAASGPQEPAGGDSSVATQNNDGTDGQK
Briefly: ELISA, antigen coated at 1 µg/mL. The method, then:
His-tagged human CD93, cyno CD93, human VEGFA, and mouse VEGFA were coated onto a 96 well plate at 1 μg/mL in 1× PBS overnight at 4′C. The plate was washed with ELISA wash buffer (Boston BioProduct, Inc.) and the wells were blocked with 3% BSA/PBS ELISA blocking buffer for 1 hour at 37′C. […] The plate was washed with ELISA wash Buffer. HRP conjugated Anti-human Fc was added and incubated for one hour at 37° C. The plate was washed with ELISA wash buffer and read in a microplate reader at 405 nm.
On the technique in general: In an ELISA, binding on a coated surface is turned into a signal by an enzyme label.

Assay [2] concerns the target T2, Human CD93 on cells (human CD93 expressing CHO cells; HUVEC, U937 and KG1a cells) (human, UniProt Q9NPY3 22-652).
T2 construct: whole, on cells; also called hCD93 expressing CHO cells; hCD93 CHO cells
T2 sequence (looked up): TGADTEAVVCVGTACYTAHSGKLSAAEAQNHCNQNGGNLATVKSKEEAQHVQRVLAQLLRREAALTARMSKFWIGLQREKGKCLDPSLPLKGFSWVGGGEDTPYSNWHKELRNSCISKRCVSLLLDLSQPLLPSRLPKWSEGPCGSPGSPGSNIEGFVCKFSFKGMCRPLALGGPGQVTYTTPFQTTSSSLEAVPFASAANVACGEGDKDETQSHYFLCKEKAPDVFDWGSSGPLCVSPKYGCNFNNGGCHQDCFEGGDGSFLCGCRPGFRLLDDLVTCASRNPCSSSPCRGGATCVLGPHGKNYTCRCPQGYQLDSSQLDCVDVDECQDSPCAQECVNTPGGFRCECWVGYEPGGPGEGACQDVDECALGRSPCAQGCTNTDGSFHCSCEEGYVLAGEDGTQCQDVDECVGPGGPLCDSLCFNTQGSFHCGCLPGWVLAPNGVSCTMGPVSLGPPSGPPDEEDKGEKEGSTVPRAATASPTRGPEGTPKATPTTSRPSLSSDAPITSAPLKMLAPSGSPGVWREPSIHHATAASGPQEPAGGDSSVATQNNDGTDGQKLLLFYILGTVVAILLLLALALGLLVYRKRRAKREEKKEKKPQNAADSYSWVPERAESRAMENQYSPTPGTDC
Briefly: flow cytometry on human CD93 expressing CHO cells (10 µg/ml by the text).

Assay [3] has as its target T2, Human CD93 on cells (human CD93 …). As to the kind of experiment: flow cytometry, CHO cells overexpressing human CD93, antibody 0.01ug, mIgG1 as control, APC-A. For orientation: Flow cytometry measures light scatter and fluorescence of single cells or particles in a stream.
The target of assay [4] is T1, Human CD93 recombinant protein (Sino …). As to the kind of experiment: ELISA, His-tagged human CD93 coated, OD450. As for the experimental part:
His-tagged human CD93 was coated onto a 96 well plate at 1 μg/mL in 1×PBS overnight at 4° C. The plate was washed with ELISA wash buffer (Boston BioProduct, Inc.) and the wells were blocked with ELISA blocking buffer for 1 hour at 37° C. […] The plate was washed with ELISA wash Buffer. […] The plate was washed with ELISA wash Buffer. HRP substrate was added for indirect detection of the antibodies binding to CD93.

Assay [5] addresses T2, Human CD93 on cells (human CD93 …). As to the kind of experiment: flow cytometry titration on KG1a cells; column head printed kd, unit from the axis log (concentration (M)).
Assay [6] has the same target. As to the kind of experiment: flow cytometry titration on U937 cells; column head printed kd, unit from the axis log (concentration (M)).
For assay [7], the target named is T3, rh VEGFA (recombinant human VEGFA) (human, UniProt P15692-4 27-191, limits assumed). As to the kind of experiment: BLI (Octet QKe), biotinylated rh VEGFA on streptavidin sensors. As for the experimental part:
(§1) The rh VEGFA was made in-house and biotinylated using EZ-LINK NHS-PEG4 biotin (Thermo Fisher Scientific). Streptavidin biosensors (Fortebio) were used to load biotinylated rh VEGFA protein (300 seconds in 5 μg/ml). […] Then the sensors were dissociated in 1× kinetics buffer for 600 seconds.
(BLI is a label-free optical method that tracks binding on a fibre tip over time.)

The target of assay [8] is T3, rh VEGFA (recombinant human VEGFA). Briefly: BLI (Octet), biotinylated rh VEGFA on streptavidin biosensors, sample in serial dilution. As for the experimental part: as §1
Assay [9] deals with T1, Human CD93 recombinant protein (Sino …). Briefly: ELISA, hCD93-His coated, OD450. The method, then:
His-tagged human CD93 was coated onto a 96 well plate at 1 μg/mL in 1×PBS overnight at 4° C. The plate was washed with ELISA wash buffer (Boston BioProduct, Inc.) and the wells were blocked with ELISA blocking buffer for 1 hour at 37° C. Purified antibodies were serially diluted in ELISA blocking buffer (Boston BioProduct, Inc.) and incubated on the receptor for 1 hour at 37° C. The plate was washed with ELISA wash Buffer. […] The plate was washed with ELISA wash buffer. HRP substrate was added for indirect detection of the antibodies binding to CD93.

Assay [10] concerns the target T2, Human CD93 on cells (human CD93 …). As to the kind of experiment: flow cytometry on human CD93 expressing CHO cells. As for the experimental part:
Human CD93 expressing CHO cells were detached by incubation with TrypLE reagents (Thermo Fisher), which preserves the integrity of CD93 on the cell surface. Then the cells were incubated with serially diluted anti-CD93 antibodies for 30 minutes in 4° C. After washing by FACS buffer, the cells were incubated with Alexa Fluor 647 conjugated anti-human IgG (Jackson ImmunoResearch) for 30 minutes in 4° C. After washing by FACS buffer twice, the samples were acquired in NovoCyte Flow Cytometer and analyzed by NovoExpress software.

For assay [11], the target named is T1, Human CD93 recombinant protein (Sino …). As to the kind of experiment: summary table, column ELISA (hCD93).
For assay [12] the target is unchanged. Briefly: ELISA, His-tagged human CD93 coated, OD450. As for the experimental part: His-tagged human CD93 was coated onto a 96 well plate at 1 μg/mL in 1×PBS overnight at 4° C. The plate was washed with ELISA wash buffer (Boston BioProduct, Inc.) and the wells were blocked with ELISA blocking buffer for 1 hour at 37° C. […] The plate was washed with ELISA wash Buffer. HRP-conjugated anti-human Fc antibody was incubated for 1 hour at 37° C. The plate was washed with ELISA wash Buffer. HRP substrate was added for indirect detection of the antibodies binding to CD93.
This is another data set of the same source.

Assay [13] has the same target. As to the kind of experiment: summary table, column Octet (hCD93).
Assay [14] has the same target. Briefly: BLI (Octet QKe), biotinylated human CD93 on streptavidin biosensors. The method, then:
The binding affinity of anti-CD93 antibodies was determined with bio-layer interferometry using Octet QKe (Fortebio). […] Human CD93 recombinant protein (Sino Biological Inc, Catalog #12589-H08H) was biotinylated using EZ-LINK NHS-PEG4 biotin (Thermo Fisher Scientific). Streptavidin biosensors (Fortebio) were used to load biotinylated CD93 protein (300 seconds in 5 μg/ml). Baseline was stabilized for 60 seconds in 1×kinetics buffer (Fortebio) before anti-CD93 antibodies, at a serial dilution, were allowed to associate for 300 seconds with captured protein. Then the sensors were dissociated in 1× kinetics buffer for 600 seconds. […] (FIG. 41).

B1: chimeric 7F3/VEGFRFc (chimeric 7F3-Aflibercept) (bispecific antibody, human IgG1, kappa)
heavy: not shown
light: ENVLTQSPAIMSASPGEKVTMTCRASSSVSSSYLHWYQQKSGASPKLWIYSTSNLAFGVPARFSGSGSGTSYSLTISSVEAEDAATYYCQQYSGYPLTFGSGTKLEIKRTVAAPSVFIFPPSDEQLKSGTASVVCLLNNFYPREAKVQWKVDNALQSGNSQESVTEQDSKDSTYSLSSTLTLSKADYEKHKVYACEVTHQGLSSPVTKSFNRGEC
notes: also called chimeric 7F3/VEGFR construct
Turning to B1, the binding result in assay [1] and in assay [2] was “binds” in each case.

B2: humanized 17B10 (VH3VL3, i.e., H3L3) with a chimeric Fc containing mouse IgG1 CH2 and CH3 domains and human CH1 domains (antibody, V domains shown)
VH: QVQLVQSGPEVKKPGESLKISCKASGYAFSSYWLNWVRQMPGKGLEWMGRIYPGDGDTDYNGKFKGQVTISADKSSGTAYLQLSSLKASDTAVYFCVRGDGYWAMDYWGQGTLVTVSS
VL: DIVMTQSPDSLAVSLGERATINCRFSKSLLHSNGITYLYWYQQKPGQPPKLLIYQMSNLASGVPDRFSGSGSGTDFTLTISSLQAEDVAVYYCAQNLELPWTFGGGTKLEIK
notes: Human CH1, mouse IgG1 CH2 and CH3; also called h17B10-H3L3; humanized 17B10-mFc
As for B2, in assay [3], the “M2 gate, % of cells” value stood at 93%. Also, the EC50 in assay [4] was found to be 0.213 nM. The Kd is 0.0772 nM and 0.0952 nM in [5]; 0.104 nM and 0.0944 nM in [6].

B3: humanized 7F3/VEGFRFc (h7F3/VEGFRFc) (bispecific antibody, human IgG1, kappa)
heavy: not shown
light: EIVLTQSPSSLSASVGDRVTITCRASSSVSSSYLHWYQQKPGKAPKLLIYSTSNLAFGVPSRFSGSGSGTSYTFTISSLQPEDIATYYCQQYSGYPLTFGSGTKLEIKRTVAAPSVFIFPPSDEQLKSGTASVVCLLNNFYPREAKVQWKVDNALQSGNSQESVTEQDSKDSTYSLSSTLTLSKADYEKHKVYACEVTHQGLSSPVTKSFNRGEC
notes: Full-length human IgG1 with VEGF-trap on the C-terminus of both heavy chains; also called humanized 7F3-Aflibercept; h7F3-VEGF trap
For the molecule B3, the Kd in [7] is 2 nM. In [8], the Kd was determined as 2.01 nM, the off-rate (koff) is 0.000121 s⁻¹ and the on-rate constant (kon) was 60300 M⁻¹ s⁻¹.

B4: 16E4-hIgG1 (recombinant chimeric 16E4) (antibody, V domains shown)
VH: QVQLQQPGAELVKPGASVKLSCKASGYTFTSYWMHWVKQRPGQGLEWIGEIDPSASYTYYNQKFKGKATLTVDKSSSTAYMQLSSLTSEDSAVYYCARSVYYGNKYFDVWGAGTTVTVSS
VL: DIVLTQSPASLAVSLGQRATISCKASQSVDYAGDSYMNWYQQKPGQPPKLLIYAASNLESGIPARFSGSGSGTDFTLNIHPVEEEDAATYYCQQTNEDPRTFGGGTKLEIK
notes: the same paragraph once calls it 'humanized'; also called recombinant 16E4
Take B4: the concentration giving a half-maximal response (EC50) in assay [9] is 0.022 nM; in assay [10], 0.24 nM; in assay [11], 0.041 nM; in [12] it was 0.041 nM. The Kd in [13] and in [14] was 0.135 nM in each case. In addition, the dissociation rate constant (koff) in [14] was determined as 2.93e-05 s⁻¹. Moreover, the kon in assay [14] came out at 217000 M⁻¹ s⁻¹.

A word on the EC50: it is the midpoint of the concentration-response curve. For orientation: Kd means the equilibrium constant for the complex coming apart. For orientation: koff means a measure of how fast the partners let go of each other. Broadly, the kon is the rate constant with which the complex forms.
